US20210293791A1, “BACTERIAL VAGINOSIS DIAGNOSTIC” (MOLOGIC LTD, priority 2018, published 2021)
Non-standard residues stand in square brackets, D forms with d. Primed or numbered codes have the meaning given here. Gal = galactose on Ser (no sialyl group); Biotin′ = not defined here; Ac6c = NC1(C(=O)O)CCCCC1; PEG = not defined here

Assays:
antisera CF1064 = details: ELISA and lateral flow, FIG. 19
From the text: To refine the peptide design and remove peripheral interactions of antibodies not binding the galactose moiety in the peptide, the original sequence MOL136 was truncated to a shorter sequence MOL600: […]

MOL136 and MOL136c = test: Lateral flow assay with gold-labelled antisera on streptavidin capture zone; type: binding; details: gold-labelled CF1064; peptide 1.3 ng/ml (38 μg per strip)
Procedure: CF1064 was conjugated to gold particles in optimised conditions (15 μg/ml loading in 10 mM sodium borate buffer; pH 8.0) and assayed against MOL136 and MOL136c at a final concentration of 1.3 ng/ml (38 μg per strip). Thus, a capture zone was first formed on each lateral flow test strip using 1.5 mg/ml streptavidin. Then, 3 μl of each peptide (12.5 ng/ml peptide in PBST) was mixed with 10 μl of gold-labelled CF1064 and 15 μl of running buffer (0.5 M Tris at pH 7.5+3% BSA+0.5% Triton X-100) before each sample was run along a separate lateral flow test strip. A negative control in which no peptide was added was also run as a negative control. 15 μl of running buffer wash was then run along each lateral flow test strip.

sialidase = details: 25 U/ml sialidase in PBST for 5 minutes
Procedure: Thus, a capture zone was first formed on each lateral flow test strip using 1.5 mg/ml streptavidin. Then, 3 μl of each peptide (12.5 ng/ml peptide in PBST) was mixed with 10 μl of gold-labelled CF1064 and 15 μl of running buffer (0.5 M Tris at pH 7.5+3% BSA+0.5% Triton X-100) before each sample was run along a separate lateral flow test strip. A negative control in which no peptide was added was also run as a negative control. 15 μl of running buffer wash was then run along each lateral flow test strip.
The procedure described in Example 4B was repeated in the presence of 25 U/ml sialidase. A sample in which sialidase was absent was used as a negative control. A further negative control was run in which no peptide and no sialidase was included in the sample. As a positive control, MOL136 was used in place of MOL136c in the presence of 25 U/ml sialidase.

[1] = test system: T1, MOL136c: biotin-PEG-Asp-Glu-DSer-Nva-Cyc-DAla-Ser[Gal-Sial]-DAla-Arg-Phe-DSer-Val-OH
T1 sequence: DESXXASARFSV

[2] = test system: T2, MOL600c: NH2-Cyc-DAla-Ser[Gal-Sial]-DAla-Arg-PEG-Biotin
T2 sequence: XASAR

[3] = biological target: T3, MOL600: NH2-Cyc-DAla-Ser[Gal]-DAla-Arg-PEG-Biotin (reading uncertain; also: printed as NH2-Cyc-DAla-Ser[Gal]-DAla-Arg-PEG-Biotin); test: bio-layer interferometry, peptide immobilised on streptavidin biosensor, antibody at 1, 2, 4, 8 or 16 nM
T3 construct: MOL600 is its de-sialylated form; Immobilised on a streptavidin biosensor through biotin
T3 peptide: H-[Ac6c][dA]S(Gal)[dA]R-{PEG-Biotin′}
Procedure: (§1) MOL615 was biotinylated to yield MOL600 (sequence provided in Example 7) and antibody binding affinity and kinetics was measured using bio-inferometry. […] Binding of the antibody was detected by a shift in the reflected light interference.

MOL600 = test: Antibody binding affinity and kinetics by bio-inferometry, peptide immobilised on biosensor by streptavidin/biotin
Procedure: as §1

[4] = antibody at 1, 2, 4, 8 or 16 nM, MOL600 immobilised

NH2—Cyc-DAla-Ser[Gal-Sial]-DAla-Arg-PEG-Biotin [MOL600c]
performance compared with MOL136/MOL136c (antisera CF1064): significant improvement in performance

NH2—Cyc-DAla-Ser[Gal]-DAla-Arg-PEG-Biotin [MOL600]
performance compared with MOL136/MOL136c (antisera CF1064): significant improvement in performance

biotin-PEG-Asp-Glu-DSer-Nva-Cyc-DAla-Ser[Gal-Sial]-DAla-Arg-Phe-DSer-Val-OH [MOL136c]
signal in the capture zone (visible line on the test strip) (MOL136 and MOL136c): little/no signal
lateral flow signal after sialidase incubation (sialidase): clear positive signal

biotin-PEG-Asp-Glu-DSer-Nva-Cyc-DAla-Ser[Gal]-DAla-Arg-Phe-DSer-Val-OH [MOL136]
signal in the capture zone (visible line on the test strip) (MOL136 and MOL136c): clearly detected

sialidase
lateral flow test line signal with gold-labelled CF1064 [1]: A clear positive signal was observed in respect of MOL136c incubated in the presence of 25 U/ml sialidase in PBST for 5 minutes
lateral flow test line signal [2]: signal has been recovered by spiking in sialidase

B1: monoclonal antibody 125.1 (antibody, V domains shown)
VH: QSVEESGGRLVTPGTPLTLTCTVSGFSLSSYSMDWVRQAPGKGLEWVGGITTTLHTFYATWAKGRFTISKTSSTTVDLKMTSLTTDDAATYFCARGGSSVIWGPGTLVTVSS
VL: ALVMTQTPSPVSAAVGGTVTISCQSSQSVYGNNHLNWHQQKRGQPPKQLIGSASRLASGVPSRFKGSGSGTQFTLTISGVQCDDAATYYCQGSYYNGAWYVAFGGGTELEIKR
modifications: Pyro-Glu(Q) at N-terminal of heavy chain; N-linked glycosylation at constant region N@285; additional O-linked glycosylation site between positions 213 and 216 (partly occupied); C-terminal lysine eliminated
notes: Rabbit monoclonal from immunisation with KLH-MOL616; Gamma heavy chain and Kappa light chain
Kd [3]: 7.9 nM
koff [3]: 0.000427 s⁻¹
kon [3]: 54100 M⁻¹ s⁻¹

B2: antibody 125.1: rabbit monoclonal antibody, heavy chain SEQ ID NO: 7, light chain SEQ ID NO: 8, specific for Cyc-DAla-Ser[Gal]-DAla-Arg (antibody, listed as Oryctolagus cuniculus)
heavy: QSVEESGGRLVTPGTPLTLTCTVSGFSLSSYSMDWVRQAPGKGLEWVGGITTTLHTFYATWAKGRFTISKTSSTTVDLKMTSLTTDDAATYFCARGGSSVIWGPGTLVTVSSGQPKAPSVFPLAPCCGDTPSSTVTLGCLVKGYLPEPVTVTWNSGTLTNGVRTFPSVRQSSGLYSLSSVVSVTSSSQPVTCNVAHPATNTKVDKTVAPSTCSKPTCPPPELLGGPSVFIFPPKPKDTLMISRTPEVTCVVVDVSEDDPEVQFTWYINNEQVRTARPPLREQQFNSTIRVVSTLPIAHEDWLRGKEFKCKVHNKALPAPIEKTISKARGQPLEPKVYTMGPPREELSSRSVSLTCMINGFYPSDISVEWEKNGKAEDNYKTTPAVLDSDGSYFLYSKLSVPTSEWQRGDVFTCSVMHEALHNHYTQKSISRSPG
light: ALVMTQTPSPVSAAVGGTVTISCQSSQSVYGNNHLNWHQQKRGQPPKQLIGSASRLASGVPSRFKGSGSGTQFTLTISGVQCDDAATYYCQGSYYNGAWYVAFGGGTELEIKRDPVAPSVLLFPPSKEELTTGTATIVCVANKFYPSDITVTWKVDGTTQQSGIENSKTPQSPEDNTYSLSSTLSLTSAQYNSHSVYTCEVVQGSASPIVQSFNRGDC
binding specificity for MOL600 compared to the sialylated form MOL600c (MOL600; FIG. 27): clearly specific for MOL600
Koff (MOL600; [4]): 0.000427 s⁻¹
Kon (MOL600; [4]): 54080 M⁻¹ s⁻¹
